From patent US20100285131A1 (Amgen, published 2010)

Molecular target: T1, β-Klotho overexpressed in recombinant human 293T kidney cells
Test: cell-based or functional assay

Row | EC50 (nM), ELK-luciferase [nM] | Efficacy, ELK-luciferase [%] | Binder
1 | 0.4 | 100 | human FGF21 (ligand) HPIPDSSPLLQFGGQVRQRYLYTDDAQQTEAHLEIREDGTVGGAADQSPESLLQLKALKPGVIQILGVKTSRFLCQRPDGALYGSLHFDPEACSFRELLLEDGYNVYQSEAHGLPLHLPGNKSPHRDPAPRGPARFLPLPGLPPAPPEPPGILAPQPPDVGSSDPLSMVGPSQGRSPSYAS

Molecular target: T1, β-Klotho overexpressed in recombinant …
Test: cell-based or functional assay
Remark: another data set of the same source

Row | Efficacy (ELK-luciferase, relative to wild-type FGF21) [%] | Binder
2 | 12.5 | FGF21 truncation mutant 9-181 (ligand) LLQFGGQVRQRYLYTDDAQQTEAHLEIREDGTVGGAADQSPESLLQLKALKPGVIQILGVKTSRFLCQRPDGALYGSLHFDPEACSFRELLLEDGYNVYQSEAHGLPLHLPGNKSPHRDPAPRGPARFLPLPGLPPAPPEPPGILAPQPPDVGSSDPLSMVGPSQGRSPSYAS
3 | 20 | FGF21 truncation mutant 1-167 (ligand) HPIPDSSPLLQFGGQVRQRYLYTDDAQQTEAHLEIREDGTVGGAADQSPESLLQLKALKPGVIQILGVKTSRFLCQRPDGALYGSLHFDPEACSFRELLLEDGYNVYQSEAHGLPLHLPGNKSPHRDPAPRGPARFLPLPGLPPAPPEPPGILAPQPPDVGSSDPLS
4 | 10 | FGF21 truncation mutant 1-165 (ligand) HPIPDSSPLLQFGGQVRQRYLYTDDAQQTEAHLEIREDGTVGGAADQSPESLLQLKALKPGVIQILGVKTSRFLCQRPDGALYGSLHFDPEACSFRELLLEDGYNVYQSEAHGLPLHLPGNKSPHRDPAPRGPARFLPLPGLPPAPPEPPGILAPQPPDVGSSDP
5 | 113 | FGF21 truncation mutant 1-171 (ligand) HPIPDSSPLLQFGGQVRQRYLYTDDAQQTEAHLEIREDGTVGGAADQSPESLLQLKALKPGVIQILGVKTSRFLCQRPDGALYGSLHFDPEACSFRELLLEDGYNVYQSEAHGLPLHLPGNKSPHRDPAPRGPARFLPLPGLPPAPPEPPGILAPQPPDVGSSDPLSMVGP
6 | 105 | FGF21 truncation mutant 1-174 (ligand) HPIPDSSPLLQFGGQVRQRYLYTDDAQQTEAHLEIREDGTVGGAADQSPESLLQLKALKPGVIQILGVKTSRFLCQRPDGALYGSLHFDPEACSFRELLLEDGYNVYQSEAHGLPLHLPGNKSPHRDPAPRGPARFLPLPGLPPAPPEPPGILAPQPPDVGSSDPLSMVGPSQG
7 | 112 | FGF21 truncation mutant 2-181 (ligand) PIPDSSPLLQFGGQVRQRYLYTDDAQQTEAHLEIREDGTVGGAADQSPESLLQLKALKPGVIQILGVKTSRFLCQRPDGALYGSLHFDPEACSFRELLLEDGYNVYQSEAHGLPLHLPGNKSPHRDPAPRGPARFLPLPGLPPAPPEPPGILAPQPPDVGSSDPLSMVGPSQGRSPSYAS
8 | 95 | FGF21 truncation mutant 1-178 (ligand) HPIPDSSPLLQFGGQVRQRYLYTDDAQQTEAHLEIREDGTVGGAADQSPESLLQLKALKPGVIQILGVKTSRFLCQRPDGALYGSLHFDPEACSFRELLLEDGYNVYQSEAHGLPLHLPGNKSPHRDPAPRGPARFLPLPGLPPAPPEPPGILAPQPPDVGSSDPLSMVGPSQGRSPS
9 | 20 | FGF21 truncation mutant 1-166 (ligand) HPIPDSSPLLQFGGQVRQRYLYTDDAQQTEAHLEIREDGTVGGAADQSPESLLQLKALKPGVIQILGVKTSRFLCQRPDGALYGSLHFDPEACSFRELLLEDGYNVYQSEAHGLPLHLPGNKSPHRDPAPRGPARFLPLPGLPPAPPEPPGILAPQPPDVGSSDPL
10 | 93.2 | FGF21 truncation mutant 1-180 (ligand) HPIPDSSPLLQFGGQVRQRYLYTDDAQQTEAHLEIREDGTVGGAADQSPESLLQLKALKPGVIQILGVKTSRFLCQRPDGALYGSLHFDPEACSFRELLLEDGYNVYQSEAHGLPLHLPGNKSPHRDPAPRGPARFLPLPGLPPAPPEPPGILAPQPPDVGSSDPLSMVGPSQGRSPSYA
11 | 96.1 | FGF21 truncation mutant 1-173 (ligand) HPIPDSSPLLQFGGQVRQRYLYTDDAQQTEAHLEIREDGTVGGAADQSPESLLQLKALKPGVIQILGVKTSRFLCQRPDGALYGSLHFDPEACSFRELLLEDGYNVYQSEAHGLPLHLPGNKSPHRDPAPRGPARFLPLPGLPPAPPEPPGILAPQPPDVGSSDPLSMVGPSQ
12 | 120 | FGF21 truncation mutant 5-181 (ligand) DSSPLLQFGGQVRQRYLYTDDAQQTEAHLEIREDGTVGGAADQSPESLLQLKALKPGVIQILGVKTSRFLCQRPDGALYGSLHFDPEACSFRELLLEDGYNVYQSEAHGLPLHLPGNKSPHRDPAPRGPARFLPLPGLPPAPPEPPGILAPQPPDVGSSDPLSMVGPSQGRSPSYAS
13 | 105 | FGF21 truncation mutant 1-176 (ligand) HPIPDSSPLLQFGGQVRQRYLYTDDAQQTEAHLEIREDGTVGGAADQSPESLLQLKALKPGVIQILGVKTSRFLCQRPDGALYGSLHFDPEACSFRELLLEDGYNVYQSEAHGLPLHLPGNKSPHRDPAPRGPARFLPLPGLPPAPPEPPGILAPQPPDVGSSDPLSMVGPSQGRS
14 | 84.9 | FGF21 truncation mutant 1-169 (ligand) HPIPDSSPLLQFGGQVRQRYLYTDDAQQTEAHLEIREDGTVGGAADQSPESLLQLKALKPGVIQILGVKTSRFLCQRPDGALYGSLHFDPEACSFRELLLEDGYNVYQSEAHGLPLHLPGNKSPHRDPAPRGPARFLPLPGLPPAPPEPPGILAPQPPDVGSSDPLSMV
15 | 112 | FGF21 truncation mutant 1-177 (ligand) HPIPDSSPLLQFGGQVRQRYLYTDDAQQTEAHLEIREDGTVGGAADQSPESLLQLKALKPGVIQILGVKTSRFLCQRPDGALYGSLHFDPEACSFRELLLEDGYNVYQSEAHGLPLHLPGNKSPHRDPAPRGPARFLPLPGLPPAPPEPPGILAPQPPDVGSSDPLSMVGPSQGRSP
16 | 24.9 | FGF21 truncation mutant 8-181 (ligand) PLLQFGGQVRQRYLYTDDAQQTEAHLEIREDGTVGGAADQSPESLLQLKALKPGVIQILGVKTSRFLCQRPDGALYGSLHFDPEACSFRELLLEDGYNVYQSEAHGLPLHLPGNKSPHRDPAPRGPARFLPLPGLPPAPPEPPGILAPQPPDVGSSDPLSMVGPSQGRSPSYAS
17 | 97.5 | FGF21 truncation mutant 1-172 (ligand) HPIPDSSPLLQFGGQVRQRYLYTDDAQQTEAHLEIREDGTVGGAADQSPESLLQLKALKPGVIQILGVKTSRFLCQRPDGALYGSLHFDPEACSFRELLLEDGYNVYQSEAHGLPLHLPGNKSPHRDPAPRGPARFLPLPGLPPAPPEPPGILAPQPPDVGSSDPLSMVGPS
18 | 74.2 | FGF21 truncation mutant 7-181 (ligand) SPLLQFGGQVRQRYLYTDDAQQTEAHLEIREDGTVGGAADQSPESLLQLKALKPGVIQILGVKTSRFLCQRPDGALYGSLHFDPEACSFRELLLEDGYNVYQSEAHGLPLHLPGNKSPHRDPAPRGPARFLPLPGLPPAPPEPPGILAPQPPDVGSSDPLSMVGPSQGRSPSYAS
19 | 117 | FGF21 truncation mutant 4-181 (ligand) PDSSPLLQFGGQVRQRYLYTDDAQQTEAHLEIREDGTVGGAADQSPESLLQLKALKPGVIQILGVKTSRFLCQRPDGALYGSLHFDPEACSFRELLLEDGYNVYQSEAHGLPLHLPGNKSPHRDPAPRGPARFLPLPGLPPAPPEPPGILAPQPPDVGSSDPLSMVGPSQGRSPSYAS
20 | 130 | FGF21 truncation mutant 3-181 (ligand) IPDSSPLLQFGGQVRQRYLYTDDAQQTEAHLEIREDGTVGGAADQSPESLLQLKALKPGVIQILGVKTSRFLCQRPDGALYGSLHFDPEACSFRELLLEDGYNVYQSEAHGLPLHLPGNKSPHRDPAPRGPARFLPLPGLPPAPPEPPGILAPQPPDVGSSDPLSMVGPSQGRSPSYAS
